Experimental findings from patent US7897573B2, “Selective VPAC2 receptor peptide agonists” (priority 2005, dated 2011) are described below.

The nature of data set [1]: Rat serum stability study (DiscoveRx cAMP read-out on CHO-VPAC2 cells). To be noted: EC50, 4° C./EC50, 37° C., values >100% may represent release of intact peptide from the PEG conjugate; for 24 h stab (%): 24 h in rat serum at 37° C. How it is done: In order to determine the stability of VPAC2 receptor peptide agonists in rat serum, CHO-VPAC2 cells clone #6 (96 well plates/50,000 cells/well and 1 day culture), PBS 1× (Gibco), the peptides for the analysis in a 100 μM stock solution, rat serum from a sacrificed normal Wistar rat, aprotinin, and a DiscoveRx assay kit are obtained. The rat serum is stored at 4° C. until use and is used within two weeks.
The aliquot is stored with aprotinin at 4° C. The aliquot is stored without aprotinin at 37° C. The aliquots are incubated for 24 or 72 hours.
On Day 1, after incubation of the aliquots prepared on day 0 for 24 or 72 hours, an incubation buffer containing PBS+1.3 mM CaCl2, 1.2 mM MgCl2, 2 mM glucose, and 0.25 mM IBMX is prepared. A plate with 11 serial 5× dilutions of peptide for the 4° C. and 37° C. aliquot is prepared for each peptide studied. […] The plate(s) are washed with cells twice in incubation buffer. The plates are allowed to hold 50 μL incubation media per well for 15 minutes. 50 μL solution per well is transferred to the cells from the plate prepared with 11 serial 5× dilutions of peptide for the 4° C. and 37° C. aliquot for each peptide studied, using the maximal concentrations that are indicated by the primary screen, in duplicate. This step dilutes the peptide concentration by a factor of two. The cells are incubated at room temperature for 30 minutes. The supernatant is removed. 40 μL/well of the DiscoveRx antibody/extraction buffer is added. The cells are incubated on the shaker (300 rpm) for 1 hour. Normal procedure with the DiscoveRx kit is followed. cAMP standards are included in column 12. EC50 values are determined from the cAMP assay data.

Another data set addresses T1, Human VPAC1 Receptor (Homo sapiens, UniProt P32241).
T1 construct: expressed in transfected cells
T1 sequence (P32241 31-457): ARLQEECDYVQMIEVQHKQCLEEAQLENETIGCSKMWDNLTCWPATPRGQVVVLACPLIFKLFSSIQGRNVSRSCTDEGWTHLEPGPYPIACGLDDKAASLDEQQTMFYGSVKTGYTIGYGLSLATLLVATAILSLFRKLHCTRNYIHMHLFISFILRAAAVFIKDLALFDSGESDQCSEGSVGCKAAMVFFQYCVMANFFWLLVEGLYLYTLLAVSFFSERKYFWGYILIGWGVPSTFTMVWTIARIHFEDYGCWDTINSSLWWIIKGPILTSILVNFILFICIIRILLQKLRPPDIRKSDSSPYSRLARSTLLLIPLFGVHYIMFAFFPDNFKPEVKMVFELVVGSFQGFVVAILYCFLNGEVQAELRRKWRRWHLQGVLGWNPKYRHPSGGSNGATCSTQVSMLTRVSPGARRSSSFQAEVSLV
Put plainly: Filter binding assay, 125I-labeled VIP, membranes of cells transiently transfected with human VPAC1. To be noted: 125I-labeled VIP tracer. As for the experimental part:
For this assay, the solutions and equipment include:
Presoak solution: 0.5% Polyethyleneamine in Aqua dest
Buffer for flushing filter plates: 25 mM HEPES pH 7.4
Blocking buffer: 25 mM HEPES pH 7.4; 0.2% protease free BSA
Assay buffer: 25 mM HEPES pH 7.4; 0.5% protease free BSA
Dilution and assay plate: PS-Microplate, U form
Filtration Plate Multiscreen FB Opaque Plate; […] Type B Glasfiber filter
In order to prepare the filter plates, the presoak solution is aspirated by vacuum filtration. The plates are flushed twice with 200 μL flush buffer. 200 μL blocking buffer is added to the filter plate. The filter plate is then incubated with 200 μL presoak solution for 1 hour at room temperature.
The assay plate is filled with 25 μL assay buffer, 25 μL membranes (2.5 μg) suspended in assay buffer, 25 μL agonist in assay buffer, and 25 μL tracer (about 40000 cpm) in assay buffer. The filled plate is incubated for 1 hour with shaking.
The transfer from assay plate to filter plate is conducted. The blocking buffer is aspirated by vacuum filtration and washed two times with flush buffer. 90 μL is transferred from the assay plate to the filter plate. The 90 μL transferred from assay plate is aspirated and washed three times with 200 μL flush buffer. The plastic support is removed. It is dried for 1 hour at 60° C. 30 μL Microscint is added. The count is performed.

The nature of data set [2]: Pharmacokinetic profiles of PEGylated peptides in Fisher 344 rats. Particulars: 100 μg agonist/kg, plasma RIA, mean N = 3. The data set is classed as in vivo, rat. As for the experimental part:
Pharmacokinetic profiles of PEGylated peptides. Healthy Fisher 344 rats (3 animals per group) were injected with 100 μg agonist/kg (agonist amount based on peptide content and dissolved in PBS buffer). Blood samples were drawn 3, 12, 24, 48, 72, 96 and 168 hour post dosing and the peptide content in plasma was analysed by a radio-immunoassay (RIA) directed against the N-terminus of the peptide. PK parameters were then calculated using a model-independent method (WinNonlin Pro, Pharsight Corp., Mountain View, Calif., USA).

With “C6-HSDAVFTEQY(OMe)TOrnLRAibQLAAAibOrnYLQSIOrnOrnC(PEG40K)GGPSSGAPPPS-NH2 (HSDAVFTEQYTXLRXQLAAXXYLQSIXXCGGPSSGAPPPS; C6 acyl, PEG40K on Cys, C-terminal amide; Synthetic sequence PEGylated VPAC2 receptor agonist) [Agonist P560]”, the “24 h stab (%)” value in data set [1] is listed as 192%.
What is called IC50 is the point on the concentration scale where inhibition reaches its midpoint. On to “C6-HSDAVFTEQY(OMe)TOrnLRAibQLAAbuAibOrnYLQAibC(PEG40K)OrnOrnGGPSSGAPPPS-NH2 (HSDAVFTEQYTXLRXQLAXXXYLQXCXXGGPSSGAPPPS; C6 acyl, PEG40K on Cys, C-terminal amide; Synthetic sequence PEGylated VPAC2 receptor agonist) [Agonist P541]”, for which the half-maximal inhibitory concentration (IC50) with Human VPAC1 Receptor is > 25000 nM.
In the case of “C6-HSDAVFTEQY(OMe)TOrnLRAibQLAAbuAibOrnYLQAibIOrnOrnGGPSSGAPPPC(PEG20K)C(PEG20K)-NH2 (HSDAVFTEQYTXLRXQLAXXXYLQXIXXGGPSSGAPPPCC; C6 acyl, two PEG20K, C-terminal amide; Synthetic sequence PEGylated VPAC2 receptor agonist) [Agonist P517]”, the half-maximal inhibitory concentration (IC50) in the data set with Human VPAC1 Receptor is > 25000 nM.
Regarding “C6-HSDAVFTEQY(OMe)TOrnLRAibQLAAbuAibOrnYLQSC(PEG40K)OrnOrnGGPSSGAPPPS-NH2 (HSDAVFTEQYTXLRXQLAXXXYLQSCXXGGPSSGAPPPS; C6 acyl, PEG40K on Cys, C-terminal amide; Synthetic sequence PEGylated VPAC2 receptor agonist) [Agonist P543]”, in data set [1], the “24 h stab (%)” value turned out to be 119%.
With “C6-HSDAVFTEQY(OMe)TOrnLRAibQLAAbuAibOrnYLQSIOrnOrnC(PEG4OK)GGPSSGAPPPS-NH2 (HSDAVFTEQYTXLRXQLAXXXYLQSIXXCGGPSSGAPPPS; C6 acyl, PEG40K on Cys, C-terminal amide; Synthetic sequence PEGylated VPAC2 receptor agonist) [Agonist P566]”, the “24 h stab (%)” value in data set [1] was determined as 152%.
“C6-HSDAVFTEQY(OMe)TOrnLRAibQLAAbuAibOrnYLQSIOrnOrnGGPSSGAPPPC(PEG20K)C(PEG20K)-NH2 (HSDAVFTEQYTXLRXQLAXXXYLQSIXXGGPSSGAPPPCC; C6 acyl, two PEG20K, C-terminal amide; Synthetic sequence PEGylated VPAC2 receptor agonist) [Agonist P523]”: in data set [1] (72 h in rat serum at 37° C.), the “72 h stab (%)” value is listed as 281%.
As for “C6-HSDAVFTEQY(OMe)TOrnLRAibQVAAAibC(PEG40K)YLQSIOrnOrnGGPSSGAPPPS-NH2 (HSDAVFTEQYTXLRXQVAAXCYLQSIXXGGPSSGAPPPS; C6 acyl; PEG40K; non-natural residues; amide; Synthetic sequence PEGylated VPAC2 receptor peptide agonist) [Agonist P460]”, the IC50 in the data set with Human VPAC1 Receptor was > 25000 nM.
For the substance “C6-HSDAVFTEQY(OMe)TOrnLRAibQVAAAibK(W-PEG40K)YLQSIOrnOrnGGPSSGAPPPS-NH2 (HSDAVFTEQYTXLRXQVAAXXYLQSIXXGGPSSGAPPPS; C6 acyl; PEG40K; non-natural residues; amide; Synthetic sequence PEGylated VPAC2 receptor peptide agonist) [Agonist P410]”, in the data set with Human VPAC1 Receptor, the IC50 is > 25000 nM.
As for “C6-HSDAVFTEQY(OMe)TOrnLRAibQVAAAibOrnYLQAibIOrnOrnGGPSSGAPPPC(PEG40K)-NH2 (HSDAVFTEQYTXLRXQVAAXXYLQXIXXGGPSSGAPPPC; C6 acyl, PEG40K on Cys, C-terminal amide; Synthetic sequence PEGylated VPAC2 receptor agonist) [Agonist P509]”, in the data set with Human VPAC1 Receptor, the IC50 was > 25000 nM.
For the substance “C6-HSDAVFTEQY(OMe)TOrnLRAibQVAAAibOrnYLQSC(PEG20K)OrnOrnGGPSSGAPPPC(PEG20K)-NH2 (HSDAVFTEQYTXLRXQVAAXXYLQSCXXGGPSSGAPPPC; C6 acyl, two PEG20K, C-terminal amide; Synthetic sequence PEGylated VPAC2 receptor agonist) [Agonist P503]”, the “24 h stab (%)” value in data set [1] came to 174%.
A word on the Cmax: it is the highest concentration seen after dosing. Broadly, the Tmax is the time from dosing to the highest level. Take “C6-HSDAVFTEQY(OMe)TOrnLRAibQVAAAibOrnYLQSIOrnK(CO(CH2)2SPEG20K)OrnGGPSSGAPPPC(PEG20K)-NH2 (HSDAVFTEQYTXLRXQVAAXXYLQSIXXXGGPSSGAPPPC; C6 acyl, two PEG20K, C-terminal amide; Synthetic sequence PEGylated VPAC2 receptor agonist) [Agonist P499]”: in data set [2], the AUC0-last was found to be 6650 ng·h/mL, the Cl/F was determined as 0.25 mL/min/kg, the Cmax is given as 132 ng/mL and the time to peak (Tmax) was determined as 24 h. The T½ in data set [2] turned out to be 25 h. In the data set with Human VPAC1 Receptor, the IC50 is > 25000 nM.
As for “C6-HSDAVFTEQY(OMe)TOrnLRAibQVAAAibOrnYLQSIOrnK(WPEG40K)OrnGGPSSGAPPPS-NH2 (HSDAVFTEQYTXLRXQVAAXXYLQSIXXXGGPSSGAPPPS; C6 acyl; PEG40K; non-natural residues; amide; Synthetic sequence PEGylated VPAC2 receptor peptide agonist) [Agonist P454]”, in the data set with Human VPAC1 Receptor, the half-inhibitory concentration (IC50) is > 25000 nM.
As to “C6-HSDAVFTEQY(OMe)TOrnLRAibQVAAAibOrnYLQSK(WPEG40K)OrnOrnGGPSSGAPPPS-NH2 (HSDAVFTEQYTXLRXQVAAXXYLQSXXXGGPSSGAPPPS; C6 acyl, PEG40K on Lys, C-terminal amide; Synthetic sequence PEGylated VPAC2 receptor agonist) [Agonist P535]”, the IC50 with Human VPAC1 Receptor was > 25000 nM.
In the case of “C6-HSDAVFTEQY(OMe)TOrnLRAibQVAAK(CO(CH2)2SPEG40K)OrnYLQSIOrnOrnGGPSSGAPPPS-NH2 (HSDAVFTEQYTXLRXQVAAXXYLQSIXXGGPSSGAPPPS; N-terminal C6 acyl, PEG40K on Lys, C-terminal amide; Synthetic sequence PEGylated VPAC2 receptor agonist) [Agonist P475]”, the “24 h stab (%)” value in data set [1] was found to be 61%.
Same read-out and setting: under “C6-HSDAVFTEQY(OMe)TOrnLRAibQVAK(CO(CH2)2SPEG20K)AibOrnYLQSIOrnOrnGGPSSGAPPPC(PEG20K)-NH2 (HSDAVFTEQYTXLRXQVAXXXYLQSIXXGGPSSGAPPPC; C6 acyl, two PEG20K, C-terminal amide; Synthetic sequence PEGylated VPAC2 receptor agonist) [Agonist P492]” stands 131%; under “C6-HSDAVFTEQY(OMe)TOrnLRAibQVC(PEG40K)AAibOrnyLQSIOrnOrnGGPSSGAPPPS-NH2 [Agonist P478]”, 34%.
On the same count and under the same terms, under “C6-HSDAVFTEQY(OMe)TOrnLRK(CO(CH2)2SPEG40K)QVAAAibOrnYLQSIOrnOrnGGPSSGAPPPS-NH2 (HSDAVFTEQYTXLRXQVAAXXYLQSIXXGGPSSGAPPPS; N-terminal C6 acyl, PEG40K on Lys, C-terminal amide; Synthetic sequence PEGylated VPAC2 receptor agonist) [Agonist P485]” stands 65%.
